Assay results taken from the RNAGym collection of RNA variant scans (doi:10.1073/pnas.2313332121).

B1: TPR t1 (parent)
chain: GACCAAUCUGCCCUCAGAGCUCGAGAACAUCUUCGGAUGCAGAGGAGGCAGGCUUCGGUGGCGCGAUAGCGCCAACGUCCUCAACCUCCAAUGCAUCCCACCACAUGAUGAUGCCUGAAGAGCCUUGGUUUUUUG

Variants of: B1
Assay: polymerase ribozyme fitness, log enrichment relative to wild type (log ratio); higher = more active; in vitro selection for triplet polymerase activity
Method in brief: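 A single round of triplicate in vitro selection, including frozen incubation at −7 °C, was applied to PCR-built, transcribed mutant libraries of each subunit of a heterodimeric triplet polymerase ribozyme. Illumina sequencing of input and output libraries retained genotypes with ≥10 input reads and ≥1 read per output. Fitness is the base-2 logarithm of genotype enrichment divided by wild-type enrichment, from inverse-variance-weighted replicate averages.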

Variant | polymerase ribozyme fitness (log ratio)
GACCAAUCUGGCCUCAAAGCUCGAGAACAUCUUCGGAUGCAGAGGAGGCAGGCUUCGGUGGCGCGAUAGCUCCAACGUCCACAAUCUCCAAUGCAUCCCACCACAUGAUGAUGCCUCAAGAGCCUUGGUUUUUUG [C11G G17A G71U U81A C85U G117C] | -6.69
GACCAAUCUGGCCUCAGAACUCGAGAACAUCUUCGGAUGCAGAGGAGGCAGGUUUCGGUGGUGCGAUAGCGCCAACGUCCUCAACCUCCAAUGCAUCCCACCACAUGAUGGUGCCUGAAGAGCCUUGGUUUUUUG [C11G G19A C53U C62U A111G] | -1
GACCAAUCUGGCCUCAGAGCUCGAGAACAUCUUCGGAUGCAGAGGAGGCAGGCUUCGGUGGCGCGAUAGCGCCAACGUCCUCAACCUCCAAUGCAUCCCACCACAUGAUGAUGCUUGAAGAGCCUUGGUAUUUUG [C11G C115U U130A] | -0.677
GACCAAUCUGGCCUCAGAACUCGAGAACAUCUUCGGAUGCAGUGGAGGCAGGCUUCGGUGGCGCGAUAGCGCCAACGUCCUCAACCUCCAAUGCAUCCCACCACAUGAUGAUGCCUGAAGAGCCUUGGUUUUUUG [C11G G19A A43U] | -1.81
GACCAAUCUGGCCUCAGAUCUCGAGAACAUCUUCGUAUGCUGAGGAGGCAGGUUUAGGUGGCGCGAUAGCGCCAACGUCCUCAACCUCCAAUCCAUCCCACCACAUGAUGAUGACUGAAGAGCUUUGGUAUUUUG [C11G G19U G36U A41U C53U C56A G93C C114A C124U U130A] | -6.06
GACCAAUCUGGCCUCAGAGCUCGAGAACAUCUUCGGAUGCAGAGGAGGCAGGCUUCGGUGGCGCGAUAGCGCCAACGUCCUCAACCUCCAAUGCAUCCCACCACAUGAUGAUGUCUGAAGAGCCUUGGUUUUUUG [C11G C114U] | -0.754
GACCAAUCUGGCCUCAAAGCUCGAGAACAUCUUCGGAUGCAGAGGAGGCAGGCUUCGGUGGCGCGAUAGCGACAACGUCCUCAACCUCCAAUGCAUCCCACCACAUGAUGAUGCCUGAAGAGCUUUGGUUUUUUG [C11G G17A C72A C124U] | -3.65
GACCAAUCUGGCCUCAGAGCUCGAUAACAUCUUCGGAUGCAGAGGAGGCAGGCUUCGGUGGCGCGAUAGCGCCAACGUCCUCAACCUCCAAUGCAUCCCACCACAUGAUGAUGCCUGAAGAGCCUUGGUUUUUUG [C11G G25U] | -4.49
GACCAAUCUGGCCUCAGAGCUCGAAAACAUCUUCGGAUGCAGAGGAGGCAGGCUUCGGUGGCGCGAUAGCGCCAACGUCCUCAACCUCCAAUGCAUCCCACCACAUGAUGAUGCCUGAAGAGCCUUGGUUUUUUG [C11G G25A] | -4.53
GACCAAUCUGGCCUCAGAACUCGAGAACAUCUUCGGUUGCAGAGGAGGCAGGCUUCGGUGGCGCGAUAGCGCCAACGUCCUCAAGCUCCAAUGCAUCCCACCACAUGAUGAUGCCUGAAGAGCCUUGGUUUUUUG [C11G G19A A37U C85G] | -3.64
GACCAAUCUGGCCUCACAGCUCGAGAACAUCUUCGGAUGCAGAGGAGGCAGGUUUCGGUGGCGCGAUAGCGCCAACGUUCUCAACCUCCAAUGCAUCCCACCACAUGAUGAUGCCUGAAGAGCCUUGGGUUUUUG [C11G G17C C53U C79U U129G] | -3.84
GACCAAUCUGGCCUCAUAGCUCGAGAACAUCUUCGGAUGCAGAGGAGGCAGGCUUCGGUGGCGCGAUAGCGCCAACGUCCUCAACCUCCACUGCAUCCCACCACAUGAUGAUGCCUAAAGAGCCUUGGUUUUUUG [C11G G17U A91C G117A] | -1.55
GACCAAUCUGGCCUCAAAGCUCGAGAACAUCUUCGGAUGCAGAGGAGGCAGGCUUCGGUGGCGCGAUAGCGACAACGUCCUCAACCUCCAAUGCAUCCCACCACAUGAUGAUGCCUGAAGAGCCUUGGUUUUUUG [C11G G17A C72A] | -4.27
GACCAAUCUGGCCUCAGAGCUCGAGAACAUCUUCGGAUGCAGAGGAGGCAGGCUUCGGUGGCGCGAUAGCGCCAACGUCCUCAACCUCCAAUGCAUCCCACCACAUGAUGAUGCAUGAAGAGCCUUGGUUUUUUG [C11G C115A] | 0.0312
GACCAAUCUGGCCUCAGACCUCGAGAACAUCUUCGGAUGCAGAGGAGGCAGGCUUCGGUAGCGCGAUAGCGCCAACGUCCUCAACCUCCAAUGCAUCCCACCACAUGAUGAUGCCUGAAGAGACUUGGCUUUUUG [C11G G19C G60A C123A U129C] | -2.66
GACCAAUCUGGCCUCAGAGCUCAAGAACAUCUUCGGAUGCAGAGGAGGCAGGCUUCGGUGGCGCGAUAGCGCCAACGUCCUCAACCUCCAAUGCAUCCCACCACAUGAUGAUGCCUGAAGAGCCUUGGUUUUUUG [C11G G23A] | -5.25
GACCAAUCUGGCCUCAGACCUCGAGAACAUCUUCGGAUGCAGAGGAGGCAGGCUUCGGUGGCGCGAUAGCGCCAACGUCCUCAACCUCCAAUGCAUCCCACCACAUGAUGAUGCCUGAAGAGCCUUGGUUUUUUG [C11G G19C] | -2.06
GACCAAUCUGGCCUCACAGCUCGAGAACAUCUUCGGAUGCAGAGGAGGCAGGCUGCGGUGGCGCGAUAGCGCUAACGUCCUCAACCUCCAAUGCAUCCCACCACAUGAUGAUGCCUGAAGAGCCUUGGUUUUUUG [C11G G17C U55G C73U] | -3.54
GACCAAUCUGGCCUCAGAGCUCGAGAACAUCUUCAGAUGCAGAGGAGGCAGGCUUCGGUGGCGCGAUAGCGCGAACGUCCGCAACCUCCAAUGCAUCCCACCACAUGAAGAUGCCUGAAGAGCCUUGGUUUUUUG [C11G G35A C73G U81G U109A] | -6.69
GACCAAUCUGGCCUCAGAGCUCGAGAACAUCUUCGGAUGCAGAGGAGGCAGGCUUCGGUGGCGCGAUAGCGCCAACGUCCUCAACCUCCAAUGCAUCCCACCACAUGAUGAUGUCUGAAGAGCGUUGGUUUUUUG [C11G C114U C124G] | -2.07
GACCAAUCUGGCCUCAAAGCUCGAGAACAUCUUCGGAUGCAGAGGAGGCAGGCUUCGGUGGCGCGAUAGCGUCAACGUCCUCAACCUCCAAUGCAUCCCAUCACAUGAUGAUGCCUGAAGAGCCUUGGUUUUUUG [C11G G17A C72U C101U] | -2.99
